The values below come from PMC8556327.

The target in assay [1] is C-phycocyanin (αβ) monomer from Thermoleptolyngbya sp. O-77 (TlCPC) (Thermoleptolyngbya sp. O-77). Briefly: crystal structure; TlCPC-6 crystals (rhombus or rod), sitting-drop vapor diffusion at 20 °C; reservoir 8% Tacsimate (pH 5.0), 20% polyethylene glycol 3,350; 1.65 Å.
Assay [2] shares this target. Briefly: cryo-EM structure; TlCPC 6.7 and 10 mg/mL in potassium phosphate buffer (pH 7.0, 10 mM), flash-frozen on holey carbon grid; single particle analysis; hexamers and octamers in the same specimens.
The target is the same in assay [3]. Briefly: crystal structure; TlCPC-8 crystals (cube), sitting-drop vapor diffusion at 20 °C (also obtained at 42 °C); reservoir 1.6 M sodium chloride, 8% polyethylene glycol 6,000, 20% glycerol; space group I432; 2.77 Å.
For assay [4] the target is unchanged. Briefly: AUC; sedimentation velocity, TlCPC 0.92 mg/mL in potassium phosphate buffer (pH 7.0, 10 mM), 20 °C, 60,000 rpm, absorbance at 277 nm, c(s) distribution (SEDFIT); major species 5.24 S, minor species 3.15 S (monomer), 7.97 S and 11.32 S.

Where “and” joins values, the source holds several entries; their conditions need not be identical. Identical values can stand only once.

Usually stoichiometry N stands for a count of units in the complex or per binding partner. Turning to “C-phycocyanin (αβ) monomer from Thermoleptolyngbya sp. O-77 (TlCPC) (complex)”, the stoichiometry N in assay [1] is 6; in assay [2], 6 and 8; in assay [3], 8; in assay [4], 2 and 6 and 4.
